± gives the uncertainty stated by the source.
B1: POU domain, class 4, transcription factor 3, residues 185 to 256; numbered along this chain, Q15319 (parent)
chain: RELEAFAERFKQRRIKLGVTQADVGAALANLKIPGVGSLSQSTICRFESLTLSHNNMIALKPVLQAWLEEAE

Variants of: B1
Experiment: abundance fitness (aPCA) (normalised: wild type 0, dead -1); higher = more abundant; growth selection in yeast, the domain comes from the species named
Settings: Homo sapiens

Question: For RELEMFAERFKQRRIKLGVTQADVGAALANLKIPGVGSLSQSTICRFESLTLSHNNMIALKPVLQAWLEEAE [A5M], which abundance fitness is on record?
Answer: Its abundance fitness is 0.109 ± 0.099.

Question: Which abundance fitness does the source give for RELETFAERFKQRRIKLGVTQADVGAALANLKIPGVGSLSQSTICRFESLTLSHNNMIALKPVLQAWLEEAE [A5T] here?
Answer: The abundance fitness was -0.002 ± 0.23.

Question: Which abundance fitness does the source give for RELELFAERFKQRRIKLGVTQADVGAALANLKIPGVGSLSQSTICRFESLTLSHNNMIALKPVLQAWLEEAE [A5L] here?
Answer: The abundance fitness was 0.019 ± 0.065.

Question: With RELEVFAERFKQRRIKLGVTQADVGAALANLKIPGVGSLSQSTICRFESLTLSHNNMIALKPVLQAWLEEAE [A5V] as the variant, how does the abundance fitness read?
Answer: Its abundance fitness is -0.051 ± 0.096.

Question: For RELEWFAERFKQRRIKLGVTQADVGAALANLKIPGVGSLSQSTICRFESLTLSHNNMIALKPVLQAWLEEAE [A5W], which abundance fitness is on record?
Answer: Its abundance fitness is -0.379 ± 0.14.

Question: With RELESFAERFKQRRIKLGVTQADVGAALANLKIPGVGSLSQSTICRFESLTLSHNNMIALKPVLQAWLEEAE [A5S] as the variant, how does the abundance fitness read?
Answer: Its abundance fitness is -0.002 ± 0.19.

Question: For RELEQFAERFKQRRIKLGVTQADVGAALANLKIPGVGSLSQSTICRFESLTLSHNNMIALKPVLQAWLEEAE [A5Q], which abundance fitness is on record?
Answer: Its abundance fitness is 0.08 ± 0.15.

Question: With RELERFAERFKQRRIKLGVTQADVGAALANLKIPGVGSLSQSTICRFESLTLSHNNMIALKPVLQAWLEEAE [A5R] as the variant, how does the abundance fitness read?
Answer: Its abundance fitness is -0.121 ± 0.19.

Question: Which abundance fitness does the source give for RELEAFRERFKQRRIKLGVTQADVGAALANLKIPGVGSLSQSTICRFESLTLSHNNMIALKPVLQAWLEEAE [A7R] here?
Answer: Its abundance fitness is -0.695 ± 0.032.

Question: With RELEAFQERFKQRRIKLGVTQADVGAALANLKIPGVGSLSQSTICRFESLTLSHNNMIALKPVLQAWLEEAE [A7Q] as the variant, how does the abundance fitness read?
Answer: The abundance fitness was -0.689 ± 0.061.

Question: With RELEAFPERFKQRRIKLGVTQADVGAALANLKIPGVGSLSQSTICRFESLTLSHNNMIALKPVLQAWLEEAE [A7P] as the variant, how does the abundance fitness read?
Answer: The abundance fitness was -0.579 ± 0.042.

Question: Which abundance fitness does the source give for RELEAFNERFKQRRIKLGVTQADVGAALANLKIPGVGSLSQSTICRFESLTLSHNNMIALKPVLQAWLEEAE [A7N] here?
Answer: The abundance fitness was -0.927 ± 0.27.

Question: For RELEAFFERFKQRRIKLGVTQADVGAALANLKIPGVGSLSQSTICRFESLTLSHNNMIALKPVLQAWLEEAE [A7F], which abundance fitness is on record?
Answer: The abundance fitness was -0.649 ± 0.1.

Question: With RELEAFCERFKQRRIKLGVTQADVGAALANLKIPGVGSLSQSTICRFESLTLSHNNMIALKPVLQAWLEEAE [A7C] as the variant, how does the abundance fitness read?
Answer: The abundance fitness was -0.124 ± 0.055.

Question: For RELEAFKERFKQRRIKLGVTQADVGAALANLKIPGVGSLSQSTICRFESLTLSHNNMIALKPVLQAWLEEAE [A7K], which abundance fitness is on record?
Answer: Its abundance fitness is -0.398 ± 0.2.

Question: For RELEAFTERFKQRRIKLGVTQADVGAALANLKIPGVGSLSQSTICRFESLTLSHNNMIALKPVLQAWLEEAE [A7T], which abundance fitness is on record?
Answer: The abundance fitness was -0.235 ± 0.063.

Question: Which abundance fitness does the source give for RELEAFMERFKQRRIKLGVTQADVGAALANLKIPGVGSLSQSTICRFESLTLSHNNMIALKPVLQAWLEEAE [A7M] here?
Answer: Its abundance fitness is -0.784 ± 0.13.

Question: For RELEAFEERFKQRRIKLGVTQADVGAALANLKIPGVGSLSQSTICRFESLTLSHNNMIALKPVLQAWLEEAE [A7E], which abundance fitness is on record?
Answer: Its abundance fitness is -0.893 ± 0.082.

Question: Which abundance fitness does the source give for RELEAFWERFKQRRIKLGVTQADVGAALANLKIPGVGSLSQSTICRFESLTLSHNNMIALKPVLQAWLEEAE [A7W] here?
Answer: The abundance fitness was -0.817 ± 0.049.

Question: With RELEAFYERFKQRRIKLGVTQADVGAALANLKIPGVGSLSQSTICRFESLTLSHNNMIALKPVLQAWLEEAE [A7Y] as the variant, how does the abundance fitness read?
Answer: Its abundance fitness is -0.725 ± 0.18.

Question: With RELEAFIERFKQRRIKLGVTQADVGAALANLKIPGVGSLSQSTICRFESLTLSHNNMIALKPVLQAWLEEAE [A7I] as the variant, how does the abundance fitness read?
Answer: Its abundance fitness is -0.083 ± 0.2.

Question: Which abundance fitness does the source give for RELEAFLERFKQRRIKLGVTQADVGAALANLKIPGVGSLSQSTICRFESLTLSHNNMIALKPVLQAWLEEAE [A7L] here?
Answer: Its abundance fitness is -0.581 ± 0.034.

Question: Which abundance fitness does the source give for RELEAFVERFKQRRIKLGVTQADVGAALANLKIPGVGSLSQSTICRFESLTLSHNNMIALKPVLQAWLEEAE [A7V] here?
Answer: Its abundance fitness is 0.039 ± 0.029.

Question: For RELEAFDERFKQRRIKLGVTQADVGAALANLKIPGVGSLSQSTICRFESLTLSHNNMIALKPVLQAWLEEAE [A7D], which abundance fitness is on record?
Answer: The abundance fitness was -0.953 ± 0.22.

Question: Which abundance fitness does the source give for RELEAFHERFKQRRIKLGVTQADVGAALANLKIPGVGSLSQSTICRFESLTLSHNNMIALKPVLQAWLEEAE [A7H] here?
Answer: Its abundance fitness is -0.707 ± 0.099.

Question: For RELEAFGERFKQRRIKLGVTQADVGAALANLKIPGVGSLSQSTICRFESLTLSHNNMIALKPVLQAWLEEAE [A7G], which abundance fitness is on record?
Answer: Its abundance fitness is -0.646 ± 0.031.

Question: With RELEAFAFRFKQRRIKLGVTQADVGAALANLKIPGVGSLSQSTICRFESLTLSHNNMIALKPVLQAWLEEAE [E8F] as the variant, how does the abundance fitness read?
Answer: Its abundance fitness is -0.005 ± 0.12.

Question: Which abundance fitness does the source give for RELEAFAARFKQRRIKLGVTQADVGAALANLKIPGVGSLSQSTICRFESLTLSHNNMIALKPVLQAWLEEAE [E8A] here?
Answer: The abundance fitness was 0.022 ± 0.081.

Question: For RELEAFADRFKQRRIKLGVTQADVGAALANLKIPGVGSLSQSTICRFESLTLSHNNMIALKPVLQAWLEEAE [E8D], which abundance fitness is on record?
Answer: The abundance fitness was -0.05 ± 0.14.

Question: Which abundance fitness does the source give for RELEAFACRFKQRRIKLGVTQADVGAALANLKIPGVGSLSQSTICRFESLTLSHNNMIALKPVLQAWLEEAE [E8C] here?
Answer: Its abundance fitness is -0.212 ± 0.071.

Question: Which abundance fitness does the source give for RELEADAERFKQRRIKLGVTQADVGAALANLKIPGVGSLSQSTICRFESLTLSHNNMIALKPVLQAWLEEAE [F6D] here?
Answer: The abundance fitness was -0.293 ± 0.28.

Question: With RELEAYAERFKQRRIKLGVTQADVGAALANLKIPGVGSLSQSTICRFESLTLSHNNMIALKPVLQAWLEEAE [F6Y] as the variant, how does the abundance fitness read?
Answer: Its abundance fitness is -0.118 ± 0.26.

Question: Which abundance fitness does the source give for RELEAKAERFKQRRIKLGVTQADVGAALANLKIPGVGSLSQSTICRFESLTLSHNNMIALKPVLQAWLEEAE [F6K] here?
Answer: Its abundance fitness is -1.03 ± 0.42.

Question: Which abundance fitness does the source give for RELEAVAERFKQRRIKLGVTQADVGAALANLKIPGVGSLSQSTICRFESLTLSHNNMIALKPVLQAWLEEAE [F6V] here?
Answer: The abundance fitness was -0.701 ± 0.17.

Question: For RELEASAERFKQRRIKLGVTQADVGAALANLKIPGVGSLSQSTICRFESLTLSHNNMIALKPVLQAWLEEAE [F6S], which abundance fitness is on record?
Answer: Its abundance fitness is -0.338 ± 0.3.

Question: Which abundance fitness does the source give for RELEALAERFKQRRIKLGVTQADVGAALANLKIPGVGSLSQSTICRFESLTLSHNNMIALKPVLQAWLEEAE [F6L] here?
Answer: The abundance fitness was -0.221 ± 0.25.

Question: For RELEACAERFKQRRIKLGVTQADVGAALANLKIPGVGSLSQSTICRFESLTLSHNNMIALKPVLQAWLEEAE [F6C], which abundance fitness is on record?
Answer: Its abundance fitness is -0.731 ± 0.25.

Question: Which abundance fitness does the source give for RELEAMAERFKQRRIKLGVTQADVGAALANLKIPGVGSLSQSTICRFESLTLSHNNMIALKPVLQAWLEEAE [F6M] here?
Answer: The abundance fitness was -0.327 ± 0.25.

From the Human Domainome abundance scans (Beltran et al. 2025)
